Data from publication PMC8622909 (Pharmaceuticals, 2021).

B1: UGT1A9 (Homo sapiens) (protein)
chain: GKLLVVPMDGSHWFTMRSVVEKLILRGHEVVVVMPEVSWQLGRSLNCTVKTYSTSYTLEDLDREFKAFAHAQWKAQVRSIYSLLMGSYNDIFDLFFSNCRSLFKDKKLVEYLKESSFDAVFLDPFDNCGLIVAKYFSLPSVVFARGILCHYLEEGAQCPAPLSYVPRILLGFSDAMTFKERVRNHIMHLEEHLLCHRFFKNALEIASEILQTPVTEYDLYSHTSIWLLRTDFVLDYPKPVMPNMIFIGGINCHQGKPLPMEFEAYINASGEHGIVVFSLGSMVSEIPEKKAMAIADALGKIPQTVLWRYTGTRPSNLANNTILVKWLPQNDLLGHPMTRAFITHAGSHGVYESICNGVPMVMMPLFGDQMDNAKRMETKGAGVTLNVLEMTSEDLENALKAVINDKSYKENIMRLSSLHKDRPVEPLDLAVFWVEFVMRHKGAPHLRPAAHDLTWYQYHSLDVIGFLLAVVLTVAFITFKCCAYGYRKCLGKKGRVKKAHKSKTH

Assays:
UGT1A9 = biological target: T1, UGT1A9 (Homo sapiens, UniProt O60656); assay: inhibition of PTU glucuronidation by recombinant UGT1A9, HPLC-MS/MS; assay type: biochemical; conditions: read-out: Magnolol IC50
T1 construct: human recombinant UGT1A9
T1 sequence (O60656 26-530): B1 chain

purified protein = substrate: CCCc1cc(=O)[nH]c(=S)[nH]1; assay: purified protein; conditions: UDPGA

| Molecule | IC50 (UGT1A9) | Km (purified protein) | Vmax (purified protein) |
| --- | --- | --- | --- |
| C=CCc1ccc(O)c(-c2cc(CC=C)ccc2O)c1 [magnolol] | 1160 nM | – | – |
| B1 | – | 15.27 ± 7.73 µM | 0.352 µmol/min/mg |
